In publication PMC1636348:

Molecular target: DNA polymerase mu (Polμ) wild type (Homo sapiens, UniProt Q9NP87 1-494)
Experiment: EMSA

Chain of DNA polymerase mu (Polμ) wild type (Q9NP87 whole entry): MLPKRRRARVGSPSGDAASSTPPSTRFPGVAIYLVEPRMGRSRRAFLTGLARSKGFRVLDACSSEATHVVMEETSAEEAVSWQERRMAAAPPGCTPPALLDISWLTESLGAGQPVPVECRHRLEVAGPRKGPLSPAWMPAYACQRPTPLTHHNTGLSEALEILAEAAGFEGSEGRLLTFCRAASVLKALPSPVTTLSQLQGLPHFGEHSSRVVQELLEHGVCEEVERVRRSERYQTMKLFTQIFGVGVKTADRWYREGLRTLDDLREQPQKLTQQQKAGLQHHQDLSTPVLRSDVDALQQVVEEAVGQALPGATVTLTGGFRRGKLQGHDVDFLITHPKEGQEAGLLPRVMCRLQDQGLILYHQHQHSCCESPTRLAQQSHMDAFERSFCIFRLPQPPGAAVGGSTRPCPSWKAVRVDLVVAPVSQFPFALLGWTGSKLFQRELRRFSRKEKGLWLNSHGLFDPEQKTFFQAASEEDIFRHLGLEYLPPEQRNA

B1: Blunt (P19+T19) (dsDNA)
DNA 1: GATCACAGTGAGTACAATA
DNA 2: TATTGTACTCACTGTGATC
B1: no binding.
